Experimental data taken from PMC10433963, “Interactome Analysis Identifies MSMEI_3879 as a Substrate of Mycolicibacterium smegmatis ClpC1” (Microbiology Spectrum, 2023).

B1: XRE (recombinant) (natural protein, M. smegmatis, UniProt A0QQY3 1-142, looked up)
chain: MAQDENLAAVVSNAAQDIGSFIRAQREAAQVSVRQLAEKAGVSNPYLSQIERGLRKPSADVLNQIAKALRVSAEVLYVRAGILEPSEPSEVRDAIVNDVSITERQKQVLLDIYTSFRQQNEAAGEPEGAAVIPSPDEEPATD
notes: H7-SUMO tags were removed with Ulp1 or left intact for microscale thermophoresis; also called Transcriptional regulator, XRE family protein
B2: Magnesium chelatase (recombinant) (natural protein, M. smegmatis, UniProt A0R3L1 1-461, looked up)
chain: MVSQPKDLPRTVGELRASGHRERGVKAEIRENLLAALAERRDVWPGILGFEDTVIPQLERALIAGHDVVLLGERGQGKTRLLRALTGLLDEWTPVIAGSELGEHPYSPITPESIRRAADSGDDLPVEWRHRSERYTEKLATPDTSVADLVGDIDPIKVAEGRSLGDPETIAYGLIPRAHRGIVAVNELPDLAERIQVAMLNVMEERDIQVRGYTLRLPLDVLVVASANPEDYTNRGRIITPLKDRFGAEIRTHYPLELEAEVGVIRQEAELAAEVPEYLLAVLARFARNLRESNSIDQRSGVSARFAIAAAETVAASARHRAAILGEDDPVARVVDLGTVIDVLRGKLEFETGEEGREQAVLEHLLRRATADTAQRLLGGIDVGPLVAAIEEGSPVTTGERVSAKDVVAALPDLPAIDAIAHRLNAVSVGQRAAAIELALEALYLAKRIDKVSGEGETVYG
notes: H7-SUMO tags were removed with Ulp1 or left intact for microscale thermophoresis; also called Mg chelatase
B3: DnaJ1 (recombinant) (natural protein, M. smegmatis, UniProt A0QQD0 1-390, looked up)
chain: MAQREWVEKDFYKELGVSSDASADEIKKAYRKLAAELHPDRNSDPGAAERFKAVSEANSVLSDPAKRKEYDETRRLFAGGFGRRFNQGGGGFGGGFGSDGVEFNLGDLFDAAGQTGGANIGDLFGGLFGRGPQQRPSRPRRGNDLETETELSFLEATKGVAMPLRLTSPAPCTNCHGSGARPGTSPKVCPSCNGSGVISRNQGAFGFSEPCTECRGSGSIIEHPCQECRGTGVTTRTRTINVRIPPGVEDGQRIRLAGQGEAGLRGAPSGDLYVTVHVRPDKVFGRDGDDLTVTVPVSFHELALGTTLSVPTLDGKVGVRVPKGTSDGRILRVRGRGVPKRSGGHGDLLVTVKVAVPPNLEGEAAEALEAYAKAERASGFDPRAGWAGNV
notes: H7-SUMO tags were removed with Ulp1 or left intact for microscale thermophoresis; also called Chaperone protein DnaJ1

Target: T1, ^H7-SUMOClpC1^FLAG (recombinant ClpC1) (M. smegmatis, UniProt A0R574 1-848)
T1 construct: ClpC1 unfoldase, M. smegmatis; used at 0.1 uM (hexamer) in microscale thermophoresis; In the degradation assays (functional rows) ClpC1 stood with ClpP1P2 and its H7-SUMO tag may have been removed; not shown: H7-SUMO, N-terminal, kept; FLAG, C-terminal, kept
Test: MST; Monolith NT.115; 0.1 uM ^H7-SUMOClpC1^FLAG (hexamer) with 0.1 uM His Lite OG488-Tris-NTA-Ni dye, partner titrated; fit to a Hill-form binding equation; apparent (Kapp)
Conditions: both partners purified

T1 sequence (A0R574 whole entry): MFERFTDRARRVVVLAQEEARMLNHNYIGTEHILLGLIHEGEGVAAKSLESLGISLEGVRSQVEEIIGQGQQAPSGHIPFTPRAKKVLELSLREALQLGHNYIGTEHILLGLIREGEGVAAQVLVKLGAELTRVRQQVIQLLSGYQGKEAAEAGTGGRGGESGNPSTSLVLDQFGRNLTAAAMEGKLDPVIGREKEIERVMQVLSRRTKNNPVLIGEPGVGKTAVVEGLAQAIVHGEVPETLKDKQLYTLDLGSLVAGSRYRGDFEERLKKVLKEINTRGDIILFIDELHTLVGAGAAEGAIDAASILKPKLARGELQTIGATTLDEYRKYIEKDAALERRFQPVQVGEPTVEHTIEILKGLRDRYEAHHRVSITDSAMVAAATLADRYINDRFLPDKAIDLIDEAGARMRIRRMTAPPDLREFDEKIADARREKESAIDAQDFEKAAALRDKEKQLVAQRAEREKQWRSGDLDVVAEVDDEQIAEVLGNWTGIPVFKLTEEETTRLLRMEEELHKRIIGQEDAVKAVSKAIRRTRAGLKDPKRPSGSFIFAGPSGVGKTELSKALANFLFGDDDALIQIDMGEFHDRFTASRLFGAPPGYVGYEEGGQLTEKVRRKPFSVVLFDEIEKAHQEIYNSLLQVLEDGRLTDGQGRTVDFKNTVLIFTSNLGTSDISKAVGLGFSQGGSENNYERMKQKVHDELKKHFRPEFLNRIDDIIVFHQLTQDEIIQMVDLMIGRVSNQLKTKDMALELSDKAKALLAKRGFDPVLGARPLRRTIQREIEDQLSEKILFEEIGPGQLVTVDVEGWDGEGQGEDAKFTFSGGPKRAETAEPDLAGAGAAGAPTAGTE

| Binder | binding result |
| --- | --- |
| B1 | binds |
| B2 | binds |
| B3 | binds |
